Test results: publication PMC4933183

Legend:
[1] = biological target: biotinylated human IgM (human); test: SPR; BIAcore T100, 37 °C, HBS-EP; biotinylated human IgM on streptavidin chip (biotinylated human IgG as reference), gel-filtered monomeric DBL domains injected at 20 μl/min for 2 min to equilibrium; 1:1 Langmuir isotherm
[2] = biological target: SPAM fragment of DBLMSP2 (3D7) (Plasmodium falciparum (3D7 strain)); test: SEC; size exclusion chromatography of the purified Cd4-tagged proteins; markers thyroglobulin, ferritin, aldolase, conalbumin, carbonic anhydrase
[3] = biological target: recombinant full-length DBLMSP (3D7), monobiotinylated (Plasmodium falciparum (3D7 strain)); test: SPR; BIAcore T100, 37 °C, HBS-EP; biotinylated full-length DBLMSP or DBLMSP2 on streptavidin chip, purified human IgM injected 30 min at 10 μl/min to equilibrium; equilibrium fit to a simple Langmuir isotherm; values reflect overall binding avidity
[4] = biological target: recombinant full-length DBLMSP2 (3D7), monobiotinylated (Plasmodium falciparum (3D7 strain)); test: as above

DBL domain of DBLMSP2 (3D7) (domain or fragment)
Kd [1]: 600 nM

DBL domain of DBLMSP (3D7) (domain or fragment)
Kd [1]: 60 nM

SPAM fragment of DBLMSP2 (3D7) (domain or fragment)
stoichiometry N [2]: > 4

human IgM (natural protein)
Kd [3]: 0.3 nM
Kd [4]: 1.1 nM
